B1: ICOS ligand (Homo sapiens), O75144 (parent)
chain: MRLGSPGLLFLLFSSLRADTQEKEVRAMVGSDVELSCACPEGSRFDLNDVYVYWQTSESKTVVTYHIPQNSSLENVDSRYRNRALMSPAGMLRGDFSLRLFNVTPQDEQKFHCLVLSQSLGFQEVLSVEVTLHVAANFSVPVVSAPHSPSQDELTFTCTSINGYPRPNVYWINKTDNSLLDQALQNDTVFLNMRGLYDVVSVLRIARTPSVNIGCCIENVLLQQNLTVGSQTGNDIGERDKITENPVSTGEKNAATWSILAVLCLLVVVAVAIGWVCRDRCLQHSYAGAWAVSPETELTGHV

Variants of: B1
Details: with icos_human ICOS

effect of a mutation on the interaction | Variant
with no effect | N225Q
disrupting interaction strength | F122A
with no effect | F138A
with no effect | G121A
decreasing interaction strength | H66A
disrupting interaction strength | Y80A
with no effect | G195A
with no effect | T64A
with no effect | S59A
with no effect | D77A
with no effect | T61A
decreasing interaction strength | E124A
decreasing interaction strength | L114A
with no effect | L98A
with no effect | L196A
with no effect | P141A
decreasing interaction strength | Q55A

effect of a mutation on the interaction | Variant
with no effect | V143A
with no effect | N70Q
decreasing interaction strength | N102Q
disrupting interaction strength | Q55A;V62A
disrupting interaction strength | Y53A
disrupting interaction strength | Y53F
decreasing interaction strength | V62A
with no effect | L47A
with no effect | N186Q
with no effect | Q123A
with no effect | N137Q
disrupting interaction strength | Y51A
decreasing interaction strength | Y51F
decreasing interaction strength | L120A
decreasing interaction strength | V76A
with no effect | S87A
